The record followed here is patent WO2014208760A1 (dated 2014).

The target in one assay is T1, 67LR 161-170 peptide.
T1 construct: Synthetic peptide coated on the ELISA plate at 10 ug/mL; also called ESM peptide; EGCG sensing motif (ESM)
T1 peptide: IPCNNKGAHS
In words: ELISA of hybridoma culture supernatant on coated 67LR 161-170 peptide. (ELISA stands for enzyme-linked immunosorbent assay.)

In assay [1] the target is 67 kDa laminin receptor protein (human, UniProt P08865 2-295). As to the kind of experiment: cell-based or functional assay.
Assay [2] concerns the target T2, Control peptide.
T2 construct: Coated on the ELISA plate at 10 ug/mL
T2 peptide: MNAANVGWNGSTFA
In words: ELISA, peptide coated at 10 ug/mL, HRP anti-mouse IgG, absorbance at 405 nm.

Assay [3] addresses T2, Control peptide. In words: ELISA, peptide coated at 10 ug/mL, done as for ESM-8.

B1: ESM-8 antibody (ESM-8 monoclonal antibody) (antibody, V domains shown)
VH: QVQLKQSGPGLVQPSQSLSITCTVSGFSLTTYGVHWVRQSPGKGLEWLGVIWSGGNTDYNAAFMSRLSISKDNSKSQVFFKMNSLRTTDTAIYYCARNSLLLPFDVWGAGTTVTVSS
VL: DVVMTQTPLSLPVSLGDQASISCRSSQSLVHSNGYTYLHWYLQKPGQSPKLLIYKVSNRFSGVPDRFSGSASGTDFTLKISRVEAEDLGVYFCSQSTHVPWTFGGGTKLEIK
notes: it was detected with anti-mouse IgG and compared with Control mIgG; also called monoclonal antibody ESM-8; EMS-8 antibody
As for B1, the binding result in the assay with 67LR 161-170 peptide was “binds”; in the assay with Control peptide [2], “no binding”. Moreover, in assay [1], the “acidic sphingomyelinase activity in HL60 cells (TLC of BODIPY-C12-sphingomyelin), relative to Control mIgG” value is around 3 times.

B2: ESM-16 antibody (ESM-16 monoclonal antibody) (antibody, V domains shown)
VH: EVMLVESGGGLVKPGGSLKLSCAASGFTFSSYAMSWVRQTPEKRLEWVATISSGGSYTYYPDSVKGRFTISRDNAKNTLYLQMSSLRSEDTAMYYCARNWDLDYWGQGTTLTVSS
VL: DIVMTQSPATLSVTPGDRVSLSCRASQSISDYLHWYQQKSHESPRLLIKYASQSISGIPSRFSGSGSGSDFTLSINSVEPEDVGVYYCQNGHSFPYTFGGGTKLEIK
notes: Mouse hybridoma antibody; in flow cytometry it was detected with goat anti-mouse IgM and compared with Isotype Control mIgM, which points to IgM; also called monoclonal antibody ESM-16; EMS-16 antibody
Consider B2, for which the binding result with 67LR 161-170 peptide was “binds”; in the assay with Control peptide [3], “no binding”.
